Substrate: O=c1oc2c(O)c(O)ccc2cc1-c1nc2ccccc2s1
Test: Inhibition kinetics of human S-COMT catalysed O-methylation of 3-BTD
Assay type: biochemical
Details: other: 3-BTD as substrate, no inhibitor; pH 7.4; 37.0 °C

B1: recombinant human S-COMT (Homo sapiens) (protein)
chain: MGDTKEQRILNHVLQHAEPGNAQSVLEAIDTYCEQKEWAMNVGDKKGKIVDAVIQEHQPSVLLELGAYCGYSAVRMARLLSPGARLITIEINPDCAAITQRMVDFAGVKDKVTLVVGASQDIIPQLKKKYDVDTLDMVFLDHWKDRYLPDTLLLEECGLLRKGTVLLADNVICPGAPDFLAHVRGSSCFECTHYQSFLEYREVVDGLEKAIYKGPGSEAGP
notes: made in house
  Km: 0.38 ± 0.029 µM
  Vmax: 13.8 ± 0.30 nmol/min/mg protein
